Target: rKgp (Porphyromonas gingivalis) (UniProt Q51817)
Assay: enzyme inhibition assay (chromogenic substrate)

Chain of rKgp (Porphyromonas gingivalis) (Q51817 25-1732): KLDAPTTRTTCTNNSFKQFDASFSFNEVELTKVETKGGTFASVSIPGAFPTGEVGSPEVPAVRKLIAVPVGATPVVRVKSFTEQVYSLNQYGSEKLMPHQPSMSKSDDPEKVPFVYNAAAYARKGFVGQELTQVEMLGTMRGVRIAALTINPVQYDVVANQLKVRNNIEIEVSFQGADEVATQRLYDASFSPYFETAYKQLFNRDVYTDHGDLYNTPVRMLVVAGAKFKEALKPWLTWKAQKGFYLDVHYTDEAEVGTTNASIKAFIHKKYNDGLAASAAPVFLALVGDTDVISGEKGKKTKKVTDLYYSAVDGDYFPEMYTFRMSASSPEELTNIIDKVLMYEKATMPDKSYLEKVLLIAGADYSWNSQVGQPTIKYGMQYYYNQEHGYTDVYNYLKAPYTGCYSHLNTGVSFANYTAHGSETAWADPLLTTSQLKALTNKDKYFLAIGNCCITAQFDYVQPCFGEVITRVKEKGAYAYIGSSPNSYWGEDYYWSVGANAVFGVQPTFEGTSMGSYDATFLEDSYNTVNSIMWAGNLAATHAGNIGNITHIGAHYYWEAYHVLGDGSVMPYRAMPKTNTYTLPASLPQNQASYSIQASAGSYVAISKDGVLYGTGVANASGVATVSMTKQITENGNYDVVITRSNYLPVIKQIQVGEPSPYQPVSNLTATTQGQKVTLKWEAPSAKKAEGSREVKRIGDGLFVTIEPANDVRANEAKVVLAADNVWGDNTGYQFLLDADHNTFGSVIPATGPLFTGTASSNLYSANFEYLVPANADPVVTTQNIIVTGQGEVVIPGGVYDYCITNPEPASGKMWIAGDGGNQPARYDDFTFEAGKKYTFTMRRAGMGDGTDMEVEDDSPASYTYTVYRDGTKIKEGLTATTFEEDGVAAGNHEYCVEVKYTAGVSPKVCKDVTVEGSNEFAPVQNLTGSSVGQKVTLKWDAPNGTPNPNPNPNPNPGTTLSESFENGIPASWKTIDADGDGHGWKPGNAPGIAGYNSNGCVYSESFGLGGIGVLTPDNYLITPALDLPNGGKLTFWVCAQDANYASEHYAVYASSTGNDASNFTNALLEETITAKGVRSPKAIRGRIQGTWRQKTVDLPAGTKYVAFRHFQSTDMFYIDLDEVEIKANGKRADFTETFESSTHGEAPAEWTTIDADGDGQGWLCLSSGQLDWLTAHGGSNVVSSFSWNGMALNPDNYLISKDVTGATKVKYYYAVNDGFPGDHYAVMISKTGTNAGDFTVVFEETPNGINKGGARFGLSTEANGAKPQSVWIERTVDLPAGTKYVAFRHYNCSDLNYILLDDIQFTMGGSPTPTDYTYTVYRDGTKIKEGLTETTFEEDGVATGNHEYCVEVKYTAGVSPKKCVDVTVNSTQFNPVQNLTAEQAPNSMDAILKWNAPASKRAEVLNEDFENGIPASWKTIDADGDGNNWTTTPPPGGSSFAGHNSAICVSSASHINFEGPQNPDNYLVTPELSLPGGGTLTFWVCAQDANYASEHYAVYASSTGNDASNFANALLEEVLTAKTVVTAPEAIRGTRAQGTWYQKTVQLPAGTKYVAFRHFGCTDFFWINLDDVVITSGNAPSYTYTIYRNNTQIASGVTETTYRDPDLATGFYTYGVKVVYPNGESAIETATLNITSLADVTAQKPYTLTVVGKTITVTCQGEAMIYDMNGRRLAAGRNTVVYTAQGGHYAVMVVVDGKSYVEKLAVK

| Substance | Ki [µM] | IC50 [µM] |
| --- | --- | --- |
| recombinant Kgp propeptide (rKgp-PP) (from UniProt Q51817) (domain or fragment) | 37.5 |  |
| recombinant RgpB propeptide (rRgpB-PP) (from UniProt P95493 25-229) (domain or fragment) |  | 11 |
